The conditions of this series: Equus caballus, CD; for denaturant m value / denaturant midpoint (higher = more stable) / unfolding free energy: 22 °C, GdnHCl; for Tm / change of melting temperature, mutant - wild type (higher = more stable) / unfolding enthalpy (calorimetric): Thermal, transition: 2, reversible: yes (>83%).
Where [1] appears, read: pH 4.5, sodium acetate buffer 10 mM, NaCl 100 mM, structure 1HRC.
The mark [2] stands for this setting: pH 7.4, sodium phosphate buffer 100 mM, structure 1HRC.
Setting [3] is: pH 4.5, sodium acetate buffer 10 mM, NaCl 100 mM.
[4] abbreviates: pH 7.4, sodium phosphate buffer 100 mM.

Cytochrome c Y68R|M81A, P00004 Y68R M81A, sequence (P00004 whole entry Y68R/M81A): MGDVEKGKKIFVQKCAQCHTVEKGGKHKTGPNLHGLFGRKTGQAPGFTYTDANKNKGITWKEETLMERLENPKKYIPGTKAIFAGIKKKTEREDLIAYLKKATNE
Cytochrome c wild type, P00004, sequence (P00004 whole entry): as the sequence (P00004 whole entry Y68R/M81A) above, with R68Y, A81M counted along it
Cytochrome c M81A, P00004, sequence (P00004 whole entry M81A): as the sequence (P00004 whole entry Y68R/M81A) above, with R68Y counted along it
Cytochrome c T50V, P00004, sequence (P00004 whole entry T50V): as the sequence (P00004 whole entry Y68R/M81A) above, with T50V, R68Y, A81M counted along it

Consider Cytochrome c M81A, P00004, for which, under setting [1], the denaturant m value was found to be 2.77 kcal/mol/M, the “denaturant midpoint (higher = more stable)” value (“denaturant midpoint” below) is 2.6 M, the unfolding free energy amounted to 2.77 kcal/mol and the Tm (commonly the temperature at which the thermal transition is half complete) amounted to 76 °C. Under setting [1], the “change of melting temperature, mutant - wild type (higher = more stable)” value (“change of melting temperature, mutant” for short) stood at 5 °C and the “unfolding enthalpy (calorimetric)” value turned out to be 83.4 kcal/mol. Besides, under setting [2], the denaturant m value was found to be 2.46 kcal/mol/M, the “denaturant midpoint” value is 2.71 M, the unfolding free energy was determined as 6.67 kcal/mol and the Tm was found to be 84 °C. Also, under setting [2], the “change of melting temperature, mutant” value was -0.1 °C and the “unfolding enthalpy (calorimetric)” value stood at 85.3 kcal/mol.

As for Cytochrome c T50V, P00004, under setting [1], the denaturant m value is 1.6 kcal/mol/M, the “denaturant midpoint” value was determined as 2.5 M, the unfolding free energy is 3.99 kcal/mol and the Tm amounted to 72 °C. For the same substance, under setting [1], the “change of melting temperature, mutant” value was 1 °C and the “unfolding enthalpy (calorimetric)” value turned out to be 82.5 kcal/mol. Further, under setting [2], the denaturant m value worked out at 2.68 kcal/mol/M, the “denaturant midpoint” value came to 2.7 M, the unfolding free energy is 7.22 kcal/mol and the Tm was 86 °C. Besides, under setting [2], the “change of melting temperature, mutant” value came to 1.9 °C and the “unfolding enthalpy (calorimetric)” value stood at 83.9 kcal/mol.

Regarding “Cytochrome c Y68R|M81A, P00004 Y68R M81A”, under setting [1], the denaturant m value was 2.29 kcal/mol/M, the “denaturant midpoint” value was 1.4 M, the unfolding free energy was 3.2 kcal/mol and the Tm turned out to be 55 °C. Moreover, under setting [1], the “change of melting temperature, mutant” value was -16 °C and the “unfolding enthalpy (calorimetric)” value was 78.4 kcal/mol. Under setting [2], the denaturant m value was determined as 2.46 kcal/mol/M, the “denaturant midpoint” value is 1.7 M, the unfolding free energy is 4.18 kcal/mol and the Tm is 71 °C. Under setting [2], the “change of melting temperature, mutant” value was -13.1 °C and the “unfolding enthalpy (calorimetric)” value came to 82.2 kcal/mol.

As for Cytochrome c wild type, P00004, under setting [3], the denaturant m value was 2.34 kcal/mol/M, the “denaturant midpoint” value is 2.6 M, the unfolding free energy worked out at 6 kcal/mol and the Tm was 71 °C. For the same substance, the “unfolding enthalpy (calorimetric)” value under setting [3] amounted to 49 kcal/mol. Besides, under setting [4], the denaturant m value was found to be 2.75 kcal/mol/M, the “denaturant midpoint” value worked out at 2.7 M, the unfolding free energy was determined as 7.43 kcal/mol and the Tm came out at 84.1 °C. In addition, the “unfolding enthalpy (calorimetric)” value under setting [4] turned out to be 86 kcal/mol.

(Values after FireProtDB (doi:10.1021/acs.biochem.6b01187).)
